Measured values: US20150147342A1 (published 2015)
Positions count from the first letter of the chain named. Blank lines part the entries; values can stand above or below the binder they belong to.

Assays:
[1] = molecular target: T1, Mouse Ang-2FD-hFc (mouse (Mus musculus)); assay: ELISA, 16.67 nM antibody + 8 nM mouse Ang-2FD-hFc, on coated hTie-2-mFc (competitor)
T1 construct: Order of the pieces follows the name; also called Dimeric Mouse Ang-2FD
Protocol: (§1) Tie-2 is a natural receptor for Ang-2. Anti-Ang-2 antibodies were tested for their ability to block Ang-2 binding to human Tie-2 (hTie-2). hTie-2-mFc (a chimeric construct consisting of human Tie-2 conjugated to mouse IgG; SEQ ID NO:525) was coated onto 96-well plates at a concentration of 2 μg/ml and incubated overnight followed by washing four times in wash buffer (PBS with 0.05% Tween-20). The plate was then blocked with PBS (Irvine Scientific, Santa Ana, Calif.) containing 0.5% BSA (Sigma-Aldrich Corp., St. Louis, Mo.) for one hour at room temperature. In a separate plate, purified anti-Ang-2 antibodies, at a starting concentration of 50 nM, were serially diluted by a factor of three across the plate. […] The antibody/Ang-2FD-Fc mixture was then added to the plate containing hTie-2-mFc and incubated for one hour at room temperature.

[2] = molecular target: T2, Human Ang-2FD-hFc (human); assay: ELISA, 16.67 nM antibody + 2 nM human Ang-2FD-hFc, on coated hTie-2-mFc (competitor)
T2 construct: Order of the pieces follows the name (Ang-2FD, then hFc); also called Dimeric Human Ang-2FD; human Ang-2FD protein conjugated to human IgG
Protocol: as §1

[3] = molecular target: T3, Monkey Ang-2FD-hFc (monkey (Macca fascicularis)); assay: ELISA, 16.67 nM antibody + 2 nM monkey Ang-2FD-hFc, on coated hTie-2-mFc (competitor)
T3 construct: Order of the pieces follows the name; also called Dimeric Monkey Ang-2FD
Protocol: as §1

[4] = molecular target: T4, Dimeric fibrinogen-like domain of mouse (Mus musculus) Ang-2 conjugated to human IgG1 (mouse (Mus musculus)); assay: SPR, antibody captured on anti-human kappa, 37 C
T4 construct: also called Dimeric Mouse Ang-2FD; Mouse Ang-2FD-hFc
Protocol: (§2) Additional binding experiments were conducted using selected anti-Ang-2 antibodies at two different temperatures to further assess cross-species affinity. Each selected antibody or control construct was captured at a flow rate of 40 μL/min for 1 minute on a goat anti-human kappa polyclonal antibody surface created through direct chemical coupling to a BIACORE™ chip to form a captured antibody surface.

[5] = molecular target: T4, Dimeric fibrinogen-like domain of mouse …; assay: SPR, antibody captured on anti-human kappa, 25 C
Protocol: as §2

[6] = molecular target: T4, Dimeric fibrinogen-like domain of mouse …; assay: SPR, hIgG1 antibody captured, room temp
Protocol: (§3) Antibody was captured on a goat anti-mouse IgG polyclonal antibody surface, a goat anti-human κ polyclonal antibody (Southern Biotech, Birmingham, Ala.) surface or a goat anti-human IgG polyclonal antibody (Jackson Immuno Research Lab, West Grove, Pa.) surface created through direct amine coupling to a BIACORE™ CM5 sensor chip to form a captured antibody surface. […] Antigen-antibody binding and dissociation were monitored in real time at room temperature. Kinetic analysis was performed to calculate KD and half-life of antigen/antibody complex dissociation.
(§4) The above experiment was repeated using selected purified anti-Ang-2 antibodies cloned onto human IgG1.

[7] = molecular target: T5, Dimeric fibrinogen-like domain of monkey (Macca fascicularis) Ang-2 conjugated to human IgG1 (monkey (Macca fascicularis)); assay: SPR, antibody captured on anti-human kappa, 37 C
T5 construct: also called Dimeric Monkey Ang-2FD; Monkey Ang-2FD-hFc
Protocol: as §2

[8] = molecular target: T5, Dimeric fibrinogen-like domain of …; assay: SPR, antibody captured on anti-human kappa, 25 C
Protocol: as §2

[9] = molecular target: T6, Dimeric fibrinogen-like domain of human Ang-2 conjugated to human IgG1 (human); assay: SPR, hIgG1 antibody captured, room temp
T6 construct: also called Dimeric Human Ang-2FD; Human Ang-2FD-hFc
Protocol: as §3, §4

[10] = molecular target: T5, Dimeric fibrinogen-like domain of …; assay: SPR, hIgG1 antibody captured, room temp
Protocol: as §3, §4

Percent Blocking of Ang-2FD Binding to Tie-2 [1]: 41.8% | Percent Blocking of Ang-2FD Binding to Tie-2 [2]: 97%
B1: H1H704P (antibody, V domains shown)
VH: QVQLVESGGDVVQPGRSLRLSCAASGFTFSSYGMHWVRQAPGKGLEWVAIIWYDGSNKYYADSVKGRFTISRDNSKNTLYLQMNSLRVEDTAVYSCARDFSISSRHFDYWGQGTLVTVSS
VL: DIQMTQSPSSLSASVGDRVTITCRASQAINNYLAWFQQKPGKAPKSLIYATSNLQSGVPSQFSGSGSGTDYTLTISSLQPEDFATYYCQQYYIYPITFGQGTRLEIK
notes: Fully human antibody, human IgG1

Percent Blocking of Ang-2FD Binding to Tie-2 [1]: 98% | Percent Blocking of Ang-2FD Binding to Tie-2 [2]: 97.2% | Percent Blocking of Ang-2FD Binding to Tie-2 [3]: 99.6%
B2: H1H690P (antibody, V domains shown)
VH: EVQLVESGGGLVQPGESLRLSCAASGFTFSSYAMSWVRQGPGKGLEWVSSITGSGDTTYYADSVKGRFTISRDNSKNTLYLHMNSLRAEDTAVYYCAKDFLDYSTYLAFDLWGQGTMVTVSS
VL: EIVLTQSPATLSLSPGERATLSCRASQSVSSYLTWYQQKPGQAPRLLSYDASNRATGIPARFSGSGSGTDFTLTISSLEPEDFAVYYCQQRSNWPLTFGGGTKVEIK
notes: as for B1

Kd [4]: 0.0939 nM | T1/2 [4]: 64 min | Kd [5]: 0.0651 nM | T1/2 [5]: 208 min | Kd [6]: 0.148 nM | T1/2 [6]: 129 min
B3: H1H685P (antibody, V domains shown)
VH: EVQLVESGGGLVQPGGSLRLSCAASGFTFSSYDIHWVRQATGKGLEWVSAIGPAGDTYYPGSVKGRFTISRENAKNSLYLQMNSLRAGDTAVYYCARGLITFGGLIAPFDYWGQGTLVTVSS
VL: EIVLTQSPGTLSLSPGERATLSCRASQSVSSTYLAWYQQKPGQAPRLLIYGASSRATGIPDRFSGSGSGTDFTLTISRLEPEDFAVYYCQHYDNSQTFGQGTKVEIK
notes: also called mAb1

Percent Blocking of Ang-2FD Binding to Tie-2 [1]: 96.7% | Percent Blocking of Ang-2FD Binding to Tie-2 [2]: 97.4% | Percent Blocking of Ang-2FD Binding to Tie-2 [3]: 99.8%
B4: H1H691P (antibody, V domains shown)
VH: EVQLVESGGGLVQPGRSLRLSCAASGFTFDDYAMHWVRQAPGKGLEWVSGISWNSGDIGYADSVKGRFTISRDNAKNSLYLQMNSLRAQDTALYYCAKAYGDYYYFYGMDVWGQGTTVTVS
VL: B3 VL with T32S, Y50F, G51S, H91Q, Q96L, Q100G
notes: as for B1

Kd [7]: 0.32 nM | T1/2 [7]: 11 min | Kd [4]: 0.215 nM | T1/2 [4]: 26 min | Kd [8]: 0.244 nM | T1/2 [8]: 24 min | Kd [5]: 0.385 nM | T1/2 [5]: 33 min | Kd [9]: 0.114 nM | T1/2 [9]: 127 min | Kd [10]: 0.346 nM | T1/2 [10]: 164 min | T1/2 [6]: 115 min
B5: H1H744N (antibody, V domains shown)
VH: QVQLVQSGVEVKKPGASVKVSCKTSGYTFSNNGFSWVRQAPGQGLEWLGWISGYNGNTNYAQKFQGRVTMTTDTSTSTAYMELRTLRSDDTAVYYCARDQDYSNFHWLDPWGQGTLVTVAS
VL: DIQMTQSPSSVSASVGDRVIITCRASQGLSSWLAWYQQKPGTAPKLLIHSASSLQTGVPSRFSGSGSGTEFALTINSLQPEDFGTYYCQQANSFPLTFGGGTRVEIK

Percent Blocking of Ang-2FD Binding to Tie-2 [1]: 97.6% | Percent Blocking of Ang-2FD Binding to Tie-2 [2]: 97.9% | Percent Blocking of Ang-2FD Binding to Tie-2 [3]: 96.2%
B6: H1H744N (antibody, V domains shown)
VH: B5 VH
VL: B5 VL

Percent Blocking of Ang-2FD Binding to Tie-2 [1]: 95.9% | Percent Blocking of Ang-2FD Binding to Tie-2 [2]: 97.1% | Percent Blocking of Ang-2FD Binding to Tie-2 [3]: 99.8%
B7: H1H706P (antibody, V domains shown)
VH: QVQLVESGGGVVQPGRSLRLSCAASGFTFSSYGMHWVRQAPDKGLEWVAVKWDDGSNKYYADSVKGRFTISRDNSKNTLYLQMNSLRAEDTAVYYCAREGPYDFYSGYGAFDIWGQGTMVTVSS
VL: DIQMTQSPSSLSASVGDRVTITCRASQGISNYLAWFQQKPGKAPKSLIYAASSLQSGVPSKFSGSGSGTDFTLTISSLQPEDFATYYCQQYNSYPRTFGQGTKVEIK
notes: as for B1

Percent Blocking of Ang-2FD Binding to Tie-2 [1]: 93.8% | Percent Blocking of Ang-2FD Binding to Tie-2 [2]: 95.1%
B8: H1H707P (antibody, V domains shown)
VH: B7 VH
VL: not shown
notes: as for B1

Percent Blocking of Ang-2FD Binding to Tie-2 [1]: 97.1% | Percent Blocking of Ang-2FD Binding to Tie-2 [2]: 96.6% | Percent Blocking of Ang-2FD Binding to Tie-2 [3]: 96.6%
B9: H1H724N (antibody, V domains shown)
VH: QVQLVESGGGVVQPGRSLRLSCAASGFTLSNYGMHWVRQAPGKGLEWVAVIWHDGSNTYYADSVKGRFTISRDNSKNTLYLQMNSLRAEDTAVYYCTREGLDFWSGYYPNWFDPWGQGTLVTVSS
VL: DIQMTQSPSSLSASVGDRVTITCRASQGIRNDLGWYQQKPGKAPKRLIYAASNLQGGVPSRFSGSGSGTEFTLTISSLQPEDFAAYYCLQHNIYPLTFGGGTKVEIK
